This assay deals with BirA*-FLAG-GATAD1 variants in Flp-In-293 cells. The assay is described as follows: BioID proximity labelling of full-length GATAD1 variants (SILAC). The class given is cell-based, human. Particulars: GATAD1 WT vs S102P, significant proteins only; for Log2_Ratio.H.L.normalized.WT_S102P_forward: forward experiment (label swap performed, sign inverted against the H/L ratio); for Log2_Ratio.H.L.normalized.WT_S102P_forward / Log2_Ratio.H.L.normalized.WT_S102P_reverse: log2 of normalized H/L ratio; for Ratio.H.L.normalized.WT_S102P_forward: forward experiment; for Log2_Ratio.H.L.normalized.WT_S102P_reverse / Ratio.H.L.normalized.WT_S102P_reverse: reverse experiment. An excerpt:
The GATAD1 gene variants were ordered in a pTwist ENTR Kozak vector from Twist Bioscience. The genes were then transferred to a pDEST_pcDNA5_BirA_FLAG_Nterm vector[97] using the Gateway Clonase II system (Thermo Fisher Scientific). The resulting vectors, pEXPR_GATAD1-WT_N-term_BirA_FLAG, pEXPR_GATAD1-S102P_N-term_BirA_FLAG, pEXPR_GATAD1-S102D_N-term_BirA_FLAG, and pEXPR_GATAD1-S102A_N-term_BirA_FLAG, were used to generate tetracycline-inducible stable Flp-In^TM-293 T-REx cells. A 6-well plate was co-transfected with 0.5 µg of the pEXPR plasmid and 1 µg of the pOG44 Flp-recombinase expression vector (Thermo Fisher Scientific) using 4.5 µg of PEI (Polysciences) as a transfection reagent. The following day, the cells were trypsinized and transferred to a 10 cm dish containing DMEM supplemented with 10% FCS and 200 µg/ml hygromycin B (Invivogen) for selection. The cells were cultured for approximately 18 days with media exchange every 3 days until visible colonies were observed. After around 18 days, the colonies were trypsinized and transferred to another 10 cm dish for further characterization and experiments.
Stable Flp-In^TM-293 cell lines expressing GATAD1 variants were cultured using SILAC light (Lys0, Arg0) and SILAC heavy (Lys8, Arg10) media, as explained in the cell culture section. After full labeling, cells were split into 15 cm dishes and were treated with 1 μg/mL tetracycline for 24 h to induce the expression of GATAD1. After the induction period, cells were incubated with 50 μM biotin overnight for proximity biotinylation. As a control, wild-type GATAD1 cells, without biotin or tetracycline addition, were used. Samples were multiplexed, as shown in Supplementary Fig. 41A with both forward and reverse label swap (n = 2). Cells were then lysed in lysis buffer (50 mM Tris-HCl pH 7.5, 150 mM NaCl, 1% Triton X-100, 1 mM EDTA, 1 mM EGTA, 0.1% SDS) with freshly added protease inhibitors and 1% sodium deoxycholate. To digest the excess DNA, 1 μl of Benzonase was added, and the samples were incubated for 20 min at 37 °C. Biotinylated proteins were enriched for 3 h at 4 °C using streptavidin-sepharose beads (GE Cat# 17-5113-01). Beads were pre-washed twice with 0.01% BSA and twice with lysis buffer. After enrichment, the beads were washed one time with lysis buffer, two times with washing buffer (50 mM HEPES-KOH pH 8.0, 100 mM KCl, 10% glycerol, 2 mM EDTA, 0.1% NP-40), and six times with 50 mM ammonium bicarbonate. Beads were resuspended in ammonium bicarbonate, and an on-bead protein digest with 1 μg of trypsin followed overnight. The next day, the digested proteins were transferred to a fresh tube and were incubated with 10 mM DTT for 30 min at 37 °C and with 55 mM iodoacetamide for 20 min at 37 °C in the dark. Samples were desalted with StageTips.
Peptides were separated using reversed-phase liquid chromatography (EASY nLC II 1200, Thermo Fisher Scientific) with self-made C18 microcolumns (20 cm long) packed with ReproSil-Pur C18-AQ 1.9 μm resin (Dr. Maisch, cat# r119.aq.0001). The chromatography system was coupled online to the electrospray ion source (Proxeon) of an Orbitrap Exploris 480 mass spectrometer (Thermo Fisher Scientific). The mobile phase consisted of buffer A (0.1% formic acid and 5% acetonitrile) and buffer B (0.1% formic acid and 80% acetonitrile). Peptides were eluted using a gradient with increasing concentrations of buffer B over 110 minutes, at a flow rate of 250 nl/min. Mass spectrometry data was acquired in data-dependent mode with settings for one full scan (resolution: 60,000; m/z range: 350–1600; normalized AGC target: 300%; maximum injection time: 10 ms), followed by top 20 MS/MS scans using higher-energy collisional dissociation (resolution: 15,000; m/z range: 200–2000; normalized AGC target: 100%; maximum injection time: 120 ms; isolation width: 1.3 m/z; normalized collision energy: 28%).
Raw files were analyzed with MaxQuant, version 2.0.3.0. […]

B1: GTF2E2 (protein, UniProt P29084 1-291, looked up)
Transcription initiation …: MDPSLLRERELFKKRALSTPVVEKRSASSESSSSSSKKKKTKVEHGGSSGSKQNSDHSNGSFNLKALSGSSGYKFGVLAKIVNYMKTRHQRGDTHPLTLDEILDETQHLDIGLKQKQWLMTEALVNNPKIEVIDGKYAFKPKYNVRDKKALLRLLDQHDQRGLGGILLEDIEEALPNSQKAVKALGDQILFVNRPDKKKILFFNDKSCQFSVDEEFQKLWRSVTVDSMDEEKIEEYLKRQGISSMQESGPKKVAPIQRRKKPASQKKRRFKTHNEHLAGVLKDYSDITSSK
For the molecule B1, the Log2_Ratio.H.L.normalized.WT_S102P_forward came out at 1.243, the Ratio.H.L.normalized.WT_S102P_forward amounted to 0.4226, the Log2_Ratio.H.L.normalized.WT_S102P_reverse came out at 1.178 and the Ratio.H.L.normalized.WT_S102P_reverse was determined as 2.2619.

B2: TOX4 (protein, UniProt O94842 1-621, looked up)
TOX high mobility group box …: MEFPGGNDNYLTITGPSHPFLSGAETFHTPSLGDEEFEIPPISLDSDPSLAVSDVVGHFDDLADPSSSQDGSFSAQYGVQTLDMPVGMTHGLMEQGGGLLSGGLTMDLDHSIGTQYSANPPVTIDVPMTDMTSGLMGHSQLTTIDQSELSSQLGLSLGGGTILPPAQSPEDRLSTTPSPTSSLHEDGVEDFRRQLPSQKTVVVEAGKKQKAPKKRKKKDPNEPQKPVSAYALFFRDTQAAIKGQNPNATFGEVSKIVASMWDSLGEEQKQVYKRKTEAAKKEYLKALAAYKDNQECQATVETVELDPAPPSQTPSPPPMATVDPASPAPASIEPPALSPSIVVNSTLSSYVANQASSGAGGQPNITKLIITKQMLPSSITMSQGGMVTVIPATVVTSRGLQLGQTSTATIQPSQQAQIVTRSVLQAAAAAAAAASMQLPPPRLQPPPLQQMPQPPTQQQVTILQQPPPLQAMQQPPPQKVRINLQQQPPPLQIKSVPLPTLKMQTTLVPPTVESSPERPMNNSPEAHTVEAPSPETICEMITDVVPEVESPSQMDVELVSGSPVALSPQPRCVRSGCENPPIVSKDWDNEYCSNECVVKHCRDVFLAWVASRNSNTVVFVK
For B2, the Log2_Ratio.H.L.normalized.WT_S102P_forward is given as 1.265, the Ratio.H.L.normalized.WT_S102P_forward is reported as 0.416, the Log2_Ratio.H.L.normalized.WT_S102P_reverse was found to be 1.044 and the Ratio.H.L.normalized.WT_S102P_reverse stood at 2.0619.

B3: GTF2E1 (protein, UniProt P29083 2-439, looked up)
General transcription factor …: ADPDVLTEVPAALKRLAKYVIRGFYGIEHALALDILIRNSCVKEEDMLELLKFDRKQLRSVLNNLKGDKFIKCRMRVETAADGKTTRHNYYFINYRTLVNVVKYKLDHMRRRIETDERDSTNRASFKCPVCSSTFTDLEANQLFDPMTGTFRCTFCHTEVEEDESAMPKKDARTLLARFNEQIEPIYALLRETEDVNLAYEILEPEPTEIPALKQSKDHAATTAGAASLAGGHHREAWATKGPSYEDLYTQNVVINMDDQEDLHRASLEGKSAKERPIWLRESTVQGAYGSEDMKEGGIDMDAFQEREEGHAGPDDNEEVMRALLIHEKKTSSAMAGSVGAAAPVTAANGSDSESETSESDDDSPPRPAAVAVHKREEDEEEDDEFEEVADDPIVMVAGRPFSYSEVSQRPELVAQMTPEEKEAYIAMGQRMFEDLFE
Regarding B3, the Log2_Ratio.H.L.normalized.WT_S102P_forward is 1.078, the Ratio.H.L.normalized.WT_S102P_forward was 0.4738, the Log2_Ratio.H.L.normalized.WT_S102P_reverse worked out at 1.217 and the Ratio.H.L.normalized.WT_S102P_reverse is listed as 2.3239.

B4: TMPO (protein, UniProt P42166 2-694, looked up)
Lamina-associated polypeptide …: PEFLEDPSVLTKDKLKSELVANNVTLPAGEQRKDVYVQLYLQHLTARNRPPLPAGTNSKGPPDFSSDEEREPTPVLGSGAAAAGRSRAAVGRKATKKTDKPRQEDKDDLDVTELTNEDLLDQLVKYGVNPGPIVGTTRKLYEKKLLKLREQGTESRSSTPLPTISSSAENTRQNGSNDSDRYSDNEEGKKKEHKKVKSTRDIVPFSELGTTPSGGGFFQGISFPEISTRPPLGSTELQAAKKVHTSKGDLPREPLVATNLPGRGQLQKLASERNLFISCKSSHDRCLEKSSSSSSQPEHSAMLVSTAASPSLIKETTTGYYKDIVENICGREKSGIQPLCPERSHISDQSPLSSKRKALEESESSQLISPPLAQAIRDYVNSLLVQGGVGSLPGTSNSMPPLDVENIQKRIDQSKFQETEFLSPPRKVPRLSEKSVEERDSGSFVAFQNIPGSELMSSFAKTVVSHSLTTLGLEVAKQSQHDKIDASELSFPFHESILKVIEEEWQQVDRQLPSLACKYPVSSREATQILSVPKVDDEILGFISEATPLGGIQAASTESCNQQLDLALCRAYEAAASALQIATHTAFVAKAMQADISQAAQILSSDPSRTHQALGILSKTYDAASYICEAAFDEVKMAAHTMGNATVGRRYLWLKDCKINLASKNKLASTPFKGGTLFGGEVCKVIKKRGNKH
On to B4, for which the Log2_Ratio.H.L.normalized.WT_S102P_forward was 1.365, the Ratio.H.L.normalized.WT_S102P_forward is listed as 0.3882, the Log2_Ratio.H.L.normalized.WT_S102P_reverse is recorded as 1.174 and the Ratio.H.L.normalized.WT_S102P_reverse came to 2.2568.

B5: GTF2A1 (protein, UniProt P52655 2-376, looked up)
Transcription initiation …: ANSANTNTVPKLYRSVIEDVINDVRDIFLDDGVDEQVLMELKTLWENKLMQSRAVDGFHSEEQQLLLQVQQQHQPQQQQHHHHHHHQQAQPQQTVPQQAQTQQVLIPASQQATAPQVIVPDSKLIQHMNASNMSAAATAATLALPAGVTPVQQILTNSGQLLQVVRAANGAQYIFQPQQSVVLQQQVIPQMQPGGVQAPVIQQVLAPLPGGISPQTGVIIQPQQILFTGNKTQVIPTTVAAPTPAQAQITATGQQQPQAQPAQTQAPLVLQVDGTGDTSSEEDEDEEEDYDDDEEEDKEKDGAEDGQVEEEPLNSEDDVSDEEGQELFDTENVVVCQYDKIHRSKNKWKFHLKDGIMNLNGRDYIFSKAIGDAEW
In the case of B5, the Log2_Ratio.H.L.normalized.WT_S102P_forward is 1.42, the Ratio.H.L.normalized.WT_S102P_forward is 0.3738, the Log2_Ratio.H.L.normalized.WT_S102P_reverse is 1.224 and the Ratio.H.L.normalized.WT_S102P_reverse was 2.3357.

B6: GSTP1 (protein, UniProt P09211 2-210, looked up)
Glutathione S-transferase P: PPYTVVYFPVRGRCAALRMLLADQGQSWKEEVVTVETWQEGSLKASCLYGQLPKFQDGDLTLYQSNTILRHLGRTLGLYGKDQQEAALVDMVNDGVEDLRCKYISLIYTNYEAGKDDYVKALPGQLKPFETLLSQNQGGKTFIVGDQISFADYNLLDLLLIHEVLAPGCLDAFPLLSAYVGRLSARPKLKAFLASPEYVNLPINGNGKQ
Consider B6, for which the Log2_Ratio.H.L.normalized.WT_S102P_forward is given as -1.4183, the Ratio.H.L.normalized.WT_S102P_forward is on record as 2.6727, the Log2_Ratio.H.L.normalized.WT_S102P_reverse is listed as -1.579 and the Ratio.H.L.normalized.WT_S102P_reverse was 0.3348.

B7: TXNL1 (protein, UniProt O43396 2-289, looked up)
Thioredoxin-like protein 1: VGVKPVGSDPDFQPELSGAGSRLAVVKFTMRGCGPCLRIAPAFSSMSNKYPQAVFLEVDVHQCQGTAATNNISATPTFLFFRNKVRIDQYQGADAVGLEEKIKQHLENDPGSNEDTDIPKGYMDLMPFINKAGCECLNESDEHGFDNCLRKDTTFLESDCDEQLLITVAFNQPVKLYSMKFQGPDNGQGPKYVKIFINLPRSMDFEEAERSEPTQALELTEDDIKEDGIVPLRYVKFQNVNSVTIFVQSNQGEEETTRISYFTFIGTPVQATNMNDFKRVVGKKGESH
As for B7, the Log2_Ratio.H.L.normalized.WT_S102P_forward is recorded as 1.514, the Ratio.H.L.normalized.WT_S102P_forward was 0.3502, the Log2_Ratio.H.L.normalized.WT_S102P_reverse is recorded as 1.19 and the Ratio.H.L.normalized.WT_S102P_reverse turned out to be 2.2812.

Values taken from PMC11009412, “Pathogenic mutations of human phosphorylation sites affect protein–protein interactions” (Nature Communications, 2024).
